Experiment [1] has as its target BG505 SOSIP.v4.1-GT1.1 (HIV-1 (isolate BG505)) (UniProt Q2N0S6). Put plainly: cryo-EM structure.
Experiment [2] deals with BG505 SOSIP.v4.1 GT1.1 trimer (BG505 SOSIP germline trimer 1.1) (HIV-1 (isolate BG505)) (UniProt Q2N0S6). Description: cryo-EM structure.

Usually stoichiometry N stands for a count of units in the complex or per binding partner.

B1: 21M20 Fab (Fab, V domains shown)
VH: EVQLVESGGGLAKPGGSLRLSCAASGFTFSRSIMHWVRQAPGKGLEWVSTINYAGSTYYADSVRGRFVISRDNSKNTLSLQMNSVRPEDRAVYHCAKDKEGYYSGGYPLWYFDLWGPGTPVTISS
VL: DVQMTQSPSSLSASVGDKVSITCRASQGIADALAWYQQKPGKAPKLLIYGASNLESGVPSRFSGSGSGTDFSLTISSLQAEDFAVYYCQQRNSHPPTFGQGTRVEVK
Molecule B1 had a stoichiometry N (Ab:Env trimer) in experiment [1] of 1.

B2: 21N13 Fab (Fab, V domains shown)
VH: QVQLQESGPGRVKPSETLSLTCAVSDDSFGSSYFYWSWIRQAPGKGLEWIGYIAYSGGVRYNPSLSSRVTISRNIHERQFYLRLTSMTAADTAVYYCARHCEDDYGYYSAAQSYGLDSWGQGIAVTVSP
VL: DIQMTQSPSSLSASVGDRVTITCRTSENVNNCLNWYQQKPGKAPKLLIYRTSTLQRGVPSRFSGTGSGTDYTLTISSLQSEDFGTYYCQHYYGTPLTFGGGTMVDIK
Molecule B2 gave a stoichiometry N in experiment [2] of 3.

The values above are taken from PMC11783328.
